Source: the supplement of paper PMC9170038

System: MS2 coat protein
Experiment: apparent KD of MS2 coat protein; designed switch direction (-1 OFF switch, 1 ON switch): 1; higher = weaker reporter binding
Summary of the method: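 RNA switches sharing common flanks were transcribed by stalled E. coli RNA polymerase on Illumina chips. A doubling series of SNAP-549-labelled MS2 coat protein, from 0.7 or 1.5 nM to 3 µM, was applied in Tris-HCl pH 7.5 buffer with KCl, MgCl2, BSA, DTT, tRNA and Tween-20. Each step lasted 0.8–1.5 h at the bottom of the series and 10–20 min at the top. Normalised cluster fluorescence was curve-fitted, giving apparent KD as the per-design median over clusters.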

[1] = input ligand: microRNA oligo, concentration not stated
[2] = Eterna round: R95, input ligand: FMN 200 uM
[3] = Eterna round: R95, input ligand: microRNA oligo, concentration not stated
[4] = Eterna round: R95, input ligand: none

Row | Sequence | apparent KD of MS2 coat protein (input ligand: FMN 200 uM) [nM] | apparent KD of MS2 coat protein [1] [nM] | apparent KD of MS2 coat protein (input ligand: none) [nM] | apparent KD of MS2 coat protein [2] [nM] | apparent KD of MS2 coat protein [3] [nM] | apparent KD of MS2 coat protein [4] [nM]
1 | CGAUACACGGCAGGAUAUCGAUUCCAAAGGAAUCGAGAAGGGCCUCAUGUCGUGGAAACGUGACAUGAGGAUCACCCAUGUUGC [Omei SS(NG)1 Cv20] (Eterna round: R96, puzzle: Same State NG 1) | 84.4 | 36.1 | 55.4 |  |  | 
2 | GUAAAACAUGAGGAUCACCCAUGUCAUCUAAGUCGAGGAUAUGGGAAUUAAUUAAUUAAUCCAGAAGGCGAAAAUG [Mat - Same State 1 - D94] (puzzle: Same State 1) |  |  |  | 41.1 | 58.1 | 110
3 | AUCCGGAGAAAACAAAUCCGACAUGAGGAUCACCCAUGUACACAGGAUAUCAGCCCGUUGAGGGCUGAGAAGGGUGGCCGAGUG [Cexeati] (Eterna round: R96, puzzle: Same State NG 3) | 267 | 72.7 | 130 |  |  | 
4 | GGAGCCAAGGCAGGAUAUUCAUAUUAAUAACAUGAGGAUCACCCAUGUUGGGCCAGAAGGCCUUGGGAGAAGGGCCAUGGCUCG [Xeonanis - 13 mod17] (Eterna round: R96, puzzle: Same State NG 2) | 20.1 | 24.7 | 36.5 |  |  | 
5 | GGUAGGUUACUACCAAACAUGAGGAUCACCCAUGUAGGUGGGAAGGAUAUGGUACCUUUUAGGUACCAGAAGGUCCAUACAAUU [NGss mod of JL's mod of Fisker] (Eterna round: R96, puzzle: Same State NG 3) | 318 | 154 | 203 |  |  | 
6 | CACAUGAGGAUCACCCAUGUGAGGCGGCAAUAAAACCGCGCACAGGAUAUAGCGCUAUAAAUGCACUAGAAGGGUGAUUAGAAC [Zabeceis] (Eterna round: R96, puzzle: Same State NG 3) | 1680 | 69.6 | 36.4 |  |  | 
7 | UGAAUAAUGAUAGGAUAUACAUGAGGAAUCCUCGUAGAAGGAUCAUGACAUGAGGAUCACCCAUGUAGCGCUCAGAAGAGCGCA [Mat - Same State NG 1 - JL mod - D51] (Eterna round: R96, puzzle: Same State NG 1) | 160 | 76.7 | 191 |  |  | 
8 | GGUCCAGCCUGAGCUGGACAAAAGCAUGUACAUGAGGAUCACCCAUGUCAUGUACAAGCUUUUUGCUCGUCUUAAGA [Mat - hsa-mir-208a - 88] (puzzle: Sensor for hsa-mir-208a) |  |  |  | 1060 | 17.7 | 1020
9 | AAUUAAUUAAUACAUGAGGAUCACCCAUGUAAUUAUUAGAUCUAGGAUAUCAGCUCGAUUAGAGCUGAGAAGGAGAUCACAUGU [SSNG3/18-B2] (Eterna round: R96, puzzle: Same State NG 3) |  | 13.6 |  |  |  | 
10 | AGUCCACGCUGACGUGGACAAAAGCAUGUACAUGAGGAUCACCCAUGUCAUGUACAAGCUUUUUGCUCGUCUUAAUA [Mat - hsa-mir-208a - Mod of JL - D43] (puzzle: Sensor for hsa-mir-208a) |  |  |  | 478 | 14.9 | 549
11 | UUUAUAUUCAGAGGAUAUUAAUGUAGUAUAACAUAAGAAGGCUGUUUGUUUUGUAAAGUAAUUCUACAUGAGGAUCACCCAUGU [JR_SSNG1_Sub084] (Eterna round: R96, puzzle: Same State NG 1) |  | 15.5 |  |  |  | 
12 | GGUUUAGUCAAGUGCCGUUGCACUUGAAAACAUGAGGAUCACCCAUGUUCGGGACAAGCUUUGCUCCUCGUCUUUCC [Geisedor] (puzzle: Sensor for hsa-mir-208a) |  |  |  | 255 | 50.2 | 389
13 | AAUCAACAUGAGGAUCACCCAUGUCACACAAAGUGAGGAUAUUGGAAAUAAAUAAUAAAACGAGAAGGCGCUGCGG [OBB] (puzzle: Same State 1) |  |  |  | 26.6 | 44.5 | 60
